Values quoted from earlier work as cited in paper PMC11747410.
Read-outs that look alike come from different tables or passages of the source.

Columns and labels:
[1] = target: CD166/ALCAM (Homo sapiens) (UniProt Q13740)
[2] = target: CD166/ALCAM (Homo sapiens) (UniProt Q13740); remark: listed apart in the source

Row | Kd [1] [µM] | Kd [2] [µM] | Substance
1 | 38.5 |  | CD166/ALCAM (from UniProt Q13740)
2 |  | 0.7 | CD6 (from UniProt P30203)
